Test results from the supplement of paper PMC9112550, “Optimization of the antimicrobial peptide Bac7 by deep mutational scanning” (BMC Biology, 2022).

Tested on: Escherichia coli TOP10
Test: shrunken log2 fold change of peptide-encoding DNA abundance (4.5 h post-induction vs induction); higher = less antimicrobial activity (less host growth inhibition)
Conditions: time post-induction: 4.5 h; library: site-saturation at positions 5, 18, 19, 20
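Further: peptides expressed intracellularly from a pBAD plasmid library in pooled LB shake-flask culture, induced with 0.3% L-arabinose, DNA abundance read by NGS, three biological replicates, DESeq2 with apeglm shrinkage.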

## RRIRLRPPRLPRPRPRPWAKPRP
  shrunken log2 fold change: 0.173

## RRIRNRPPRLPRPRPRPPPWPRP
  shrunken log2 fold change: 0.591

## RRIRSRPPRLPRPRPRPCTRPRP
  shrunken log2 fold change: -0.134

## RRIRKRPPRLPRPRPRPFSHPRP
  shrunken log2 fold change: -0.131

## RRIRYRPPRLPRPRPRPDSDPRP
  shrunken log2 fold change: -0.179

## RRIRKRPPRLPRPRPRPLHMPRP
  shrunken log2 fold change: 0.102

## RRIRDRPPRLPRPRPRPCHTPRP
  shrunken log2 fold change: -0.234

## RRIRWRPPRLPRPRPRPCYKPRP
  shrunken log2 fold change: -0.00556

## RRIRGRPPRLPRPRPRPQRDPRP
  shrunken log2 fold change: 0.419

## RRIRRRPPRLPRPRPRPKALPRP
  shrunken log2 fold change: 0.237

## RRIRERPPRLPRPRPRPYYYPRP
  shrunken log2 fold change: -0.732

## RRIRIRPPRLPRPRPRPDKGPRP
  shrunken log2 fold change: 0.0101

## RRIRMRPPRLPRPRPRPIKVPRP
  shrunken log2 fold change: -0.149

## RRIRPRPPRLPRPRPRPAAFPRP
  shrunken log2 fold change: 0.207

## RRIRVRPPRLPRPRPRPAKNPRP
  shrunken log2 fold change: 0.153

## RRIRDRPPRLPRPRPRPHWRPRP
  shrunken log2 fold change: 0.0876

## RRIRDRPPRLPRPRPRPYHNPRP
  shrunken log2 fold change: -0.461

## RRIRCRPPRLPRPRPRPFRIPRP
  shrunken log2 fold change: -0.128

## RRIRARPPRLPRPRPRPDAGPRP
  shrunken log2 fold change: 0.94

## RRIRTRPPRLPRPRPRPTRFPRP
  shrunken log2 fold change: 0.463

## RRIRSRPPRLPRPRPRPFQSPRP
  shrunken log2 fold change: -0.167

## RRIRERPPRLPRPRPRPCTGPRP
  shrunken log2 fold change: -0.264

## RRIRRRPPRLPRPRPRPVTDPRP
  shrunken log2 fold change: 0.0723

## RRIRNRPPRLPRPRPRPQSGPRP
  shrunken log2 fold change: 0.0495

## RRIRRRPPRLPRPRPRPPMCPRP
  shrunken log2 fold change: 0.622

## RRIRERPPRLPRPRPRPRVRPRP
  shrunken log2 fold change: 0.211

## RRIRDRPPRLPRPRPRPMEVPRP
  shrunken log2 fold change: 0.142

## RRIRDRPPRLPRPRPRPCVLPRP
  shrunken log2 fold change: 0.0171

## RRIRHRPPRLPRPRPRPFTQPRP
  shrunken log2 fold change: -0.0771

## RRIRVRPPRLPRPRPRPYPWPRP
  shrunken log2 fold change: -0.361

## RRIRHRPPRLPRPRPRPHKLPRP
  shrunken log2 fold change: -0.279

## RRIRGRPPRLPRPRPRPHPEPRP
  shrunken log2 fold change: 0.513

## RRIRMRPPRLPRPRPRPHKTPRP
  shrunken log2 fold change: 0.0147

## RRIRMRPPRLPRPRPRPPTGPRP
  shrunken log2 fold change: 0.858

## RRIRPRPPRLPRPRPRPGQVPRP
  shrunken log2 fold change: 0.11

## RRIRSRPPRLPRPRPRPGASPRP
  shrunken log2 fold change: 0.418

## RRIRERPPRLPRPRPRPDEQPRP
  shrunken log2 fold change: -0.00815

## RRIRMRPPRLPRPRPRPIIEPRP
  shrunken log2 fold change: -0.0631

## RRIRGRPPRLPRPRPRPTWSPRP
  shrunken log2 fold change: 0.977

## RRIRLRPPRLPRPRPRPAANPRP
  shrunken log2 fold change: 0.273

## RRIRNRPPRLPRPRPRPNWHPRP
  shrunken log2 fold change: -0.111

## RRIRARPPRLPRPRPRPEQRPRP
  shrunken log2 fold change: 0.2

## RRIRPRPPRLPRPRPRPPSRPRP
  shrunken log2 fold change: 0.353

## RRIRYRPPRLPRPRPRPPFKPRP
  shrunken log2 fold change: -0.554

## RRIRCRPPRLPRPRPRPLECPRP
  shrunken log2 fold change: -0.354

## RRIRKRPPRLPRPRPRPGQEPRP
  shrunken log2 fold change: 0.053

## RRIRWRPPRLPRPRPRPGTRPRP
  shrunken log2 fold change: 0.377

## RRIRIRPPRLPRPRPRPVKHPRP
  shrunken log2 fold change: -0.107

## RRIRNRPPRLPRPRPRPVTAPRP
  shrunken log2 fold change: -0.248

## RRIRQRPPRLPRPRPRPVKAPRP
  shrunken log2 fold change: 0.198

## RRIRNRPPRLPRPRPRPYTPPRP
  shrunken log2 fold change: -0.0563

## RRIRGRPPRLPRPRPRPYQDPRP
  shrunken log2 fold change: 0.0178

## RRIRHRPPRLPRPRPRPKGCPRP
  shrunken log2 fold change: 0.031

## RRIRPRPPRLPRPRPRPRCVPRP
  shrunken log2 fold change: 0.0965

## RRIRWRPPRLPRPRPRPHIQPRP
  shrunken log2 fold change: -0.749

## RRIRDRPPRLPRPRPRPEGHPRP
  shrunken log2 fold change: -0.0429

## RRIRHRPPRLPRPRPRPNNTPRP
  shrunken log2 fold change: -0.931

## RRIRARPPRLPRPRPRPYVMPRP
  shrunken log2 fold change: -0.211

## RRIRDRPPRLPRPRPRPCADPRP
  shrunken log2 fold change: 0.167

## RRIRQRPPRLPRPRPRPTLIPRP
  shrunken log2 fold change: -0.131

## RRIRCRPPRLPRPRPRPVDMPRP
  shrunken log2 fold change: -0.247

## RRIRARPPRLPRPRPRPDLMPRP
  shrunken log2 fold change: 0.354

## RRIRVRPPRLPRPRPRPSAPPRP
  shrunken log2 fold change: 0.358

## RRIRPRPPRLPRPRPRPICPPRP
  shrunken log2 fold change: -0.17

## RRIRNRPPRLPRPRPRPFHTPRP
  shrunken log2 fold change: -0.232

## RRIRGRPPRLPRPRPRPPPDPRP
  shrunken log2 fold change: 1.37

## RRIRNRPPRLPRPRPRPMHQPRP
  shrunken log2 fold change: -0.19

## RRIRDRPPRLPRPRPRPQGTPRP
  shrunken log2 fold change: 0.165

## RRIRARPPRLPRPRPRPMCIPRP
  shrunken log2 fold change: 0.143

## RRIRSRPPRLPRPRPRPGSHPRP
  shrunken log2 fold change: -0.104

## RRIRVRPPRLPRPRPRPQDNPRP
  shrunken log2 fold change: -1.05

## RRIRYRPPRLPRPRPRPRWRPRP
  shrunken log2 fold change: 0.585

## RRIRKRPPRLPRPRPRPAPLPRP
  shrunken log2 fold change: 0.929

## RRIRDRPPRLPRPRPRPPWVPRP
  shrunken log2 fold change: -0.0472

## RRIRRRPPRLPRPRPRPWEDPRP
  shrunken log2 fold change: 0.0594

## RRIRCRPPRLPRPRPRPRLVPRP
  shrunken log2 fold change: 0.0587

## RRIRARPPRLPRPRPRPARCPRP
  shrunken log2 fold change: 0.331

## RRIRCRPPRLPRPRPRPTSPPRP
  shrunken log2 fold change: 0.102

## RRIRERPPRLPRPRPRPDWLPRP
  shrunken log2 fold change: 0.00866

## RRIRWRPPRLPRPRPRPFYFPRP
  shrunken log2 fold change: 0.0389

## RRIRSRPPRLPRPRPRPYLNPRP
  shrunken log2 fold change: -0.564

## RRIRSRPPRLPRPRPRPDEMPRP
  shrunken log2 fold change: 0.435

## RRIRRRPPRLPRPRPRPKWRPRP
  shrunken log2 fold change: 0.587

## RRIRERPPRLPRPRPRPQETPRP
  shrunken log2 fold change: 0.0209

## RRIRRRPPRLPRPRPRPMTDPRP
  shrunken log2 fold change: 0.00399

## RRIRNRPPRLPRPRPRPDVPPRP
  shrunken log2 fold change: -0.199

## RRIRFRPPRLPRPRPRPWMYPRP
  shrunken log2 fold change: -0.673

## RRIRSRPPRLPRPRPRPLECPRP
  shrunken log2 fold change: -0.267

## RRIRVRPPRLPRPRPRPVLQPRP
  shrunken log2 fold change: 0.164

## RRIRPRPPRLPRPRPRPWLSPRP
  shrunken log2 fold change: -0.119

## RRIRWRPPRLPRPRPRPEAFPRP
  shrunken log2 fold change: 0.488

## RRIRRRPPRLPRPRPRPVVEPRP
  shrunken log2 fold change: 0.339

## RRIRGRPPRLPRPRPRPGTFPRP
  shrunken log2 fold change: 0.222

## RRIRWRPPRLPRPRPRPCFMPRP
  shrunken log2 fold change: -0.0873

## RRIRMRPPRLPRPRPRPTVSPRP
  shrunken log2 fold change: 0.0176

## RRIRHRPPRLPRPRPRPHGNPRP
  shrunken log2 fold change: -1.11

## RRIRPRPPRLPRPRPRPVEQPRP
  shrunken log2 fold change: 0.239

## RRIRKRPPRLPRPRPRPPHGPRP
  shrunken log2 fold change: 0.634

## RRIRARPPRLPRPRPRPCVWPRP
  shrunken log2 fold change: 0.544

## RRIRGRPPRLPRPRPRPSKEPRP
  shrunken log2 fold change: 0.289

## RRIRMRPPRLPRPRPRPSKFPRP
  shrunken log2 fold change: -0.0303

## RRIRKRPPRLPRPRPRPNASPRP
  shrunken log2 fold change: 0.236

## RRIRQRPPRLPRPRPRPFKSPRP
  shrunken log2 fold change: -0.00197

## RRIRPRPPRLPRPRPRPIRMPRP
  shrunken log2 fold change: -0.039

## RRIRVRPPRLPRPRPRPLFPPRP
  shrunken log2 fold change: 0.0958

## RRIRFRPPRLPRPRPRPWQRPRP
  shrunken log2 fold change: -0.0586

## RRIRVRPPRLPRPRPRPCRWPRP
  shrunken log2 fold change: 0.182

## RRIRARPPRLPRPRPRPLTMPRP
  shrunken log2 fold change: 0.637

## RRIRRRPPRLPRPRPRPWLHPRP
  shrunken log2 fold change: 0.333

## RRIRGRPPRLPRPRPRPVEQPRP
  shrunken log2 fold change: 0.0754

## RRIRCRPPRLPRPRPRPVIGPRP
  shrunken log2 fold change: -0.18

## RRIRDRPPRLPRPRPRPAWGPRP
  shrunken log2 fold change: 0.769

## RRIRQRPPRLPRPRPRPRLKPRP
  shrunken log2 fold change: 0.161

## RRIRVRPPRLPRPRPRPLRPPRP
  shrunken log2 fold change: 0.97

## RRIRGRPPRLPRPRPRPYIRPRP
  shrunken log2 fold change: -0.111

## RRIRRRPPRLPRPRPRPEPWPRP
  shrunken log2 fold change: 0.538

## RRIRHRPPRLPRPRPRPIGEPRP
  shrunken log2 fold change: -0.00286

## RRIRIRPPRLPRPRPRPQIRPRP
  shrunken log2 fold change: -0.64

## RRIRRRPPRLPRPRPRPVLSPRP
  shrunken log2 fold change: 0.0336

## RRIRMRPPRLPRPRPRPHVFPRP
  shrunken log2 fold change: 0.0558

## RRIRCRPPRLPRPRPRPLVAPRP
  shrunken log2 fold change: 0.033

## RRIRARPPRLPRPRPRPCCVPRP
  shrunken log2 fold change: 0.559

## RRIRLRPPRLPRPRPRPMQKPRP
  shrunken log2 fold change: -0.0247

## RRIRDRPPRLPRPRPRPDTNPRP
  shrunken log2 fold change: -0.0518

## RRIRRRPPRLPRPRPRPPNRPRP
  shrunken log2 fold change: 0.4

## RRIRERPPRLPRPRPRPNQNPRP
  shrunken log2 fold change: -0.188

## RRIRMRPPRLPRPRPRPTAIPRP
  shrunken log2 fold change: 0.072

## RRIRRRPPRLPRPRPRPDFPPRP
  shrunken log2 fold change: 0.897

## RRIRHRPPRLPRPRPRPAVMPRP
  shrunken log2 fold change: -0.0305

## RRIRRRPPRLPRPRPRPYLTPRP
  shrunken log2 fold change: 0.0355

## RRIRQRPPRLPRPRPRPRSAPRP
  shrunken log2 fold change: 0.319

## RRIRKRPPRLPRPRPRPSGQPRP
  shrunken log2 fold change: 0.244

## RRIRIRPPRLPRPRPRPMNYPRP
  shrunken log2 fold change: -0.0706

## RRIRKRPPRLPRPRPRPVIGPRP
  shrunken log2 fold change: 0.233

## RRIRCRPPRLPRPRPRPMNFPRP
  shrunken log2 fold change: -0.383

## RRIRHRPPRLPRPRPRPPMQPRP
  shrunken log2 fold change: 0.268

## RRIRYRPPRLPRPRPRPTHRPRP
  shrunken log2 fold change: -0.1

## RRIRGRPPRLPRPRPRPEIYPRP
  shrunken log2 fold change: 0.26

## RRIRFRPPRLPRPRPRPGTDPRP
  shrunken log2 fold change: -0.11

## RRIRRRPPRLPRPRPRPEDNPRP
  shrunken log2 fold change: 0.066

## RRIRTRPPRLPRPRPRPWVSPRP
  shrunken log2 fold change: 0.137

## RRIRTRPPRLPRPRPRPGVTPRP
  shrunken log2 fold change: 0.276

## RRIRWRPPRLPRPRPRPSESPRP
  shrunken log2 fold change: 0.0933

## RRIRRRPPRLPRPRPRPPMIPRP
  shrunken log2 fold change: 0.0196

## RRIRSRPPRLPRPRPRPIVQPRP
  shrunken log2 fold change: 0.144

## RRIRIRPPRLPRPRPRPPNHPRP
  shrunken log2 fold change: -0.475

## RRIRQRPPRLPRPRPRPKARPRP
  shrunken log2 fold change: 0.152

## RRIRFRPPRLPRPRPRPTNVPRP
  shrunken log2 fold change: -0.254

## RRIRQRPPRLPRPRPRPKFQPRP
  shrunken log2 fold change: 0.022

## RRIRRRPPRLPRPRPRPTQYPRP
  shrunken log2 fold change: 0.571
